{"source": "patent US12383572B2", "about": "“Administration of an anti-activin-a compound to a subject” (AMGEN INC., priority 2013, dated 2025)", "molecules": {"B1": {"name": "sActRIIB: extracellular domain of human activin type-2B receptor fused to IgG2 Fc; full length SEQ ID NO: 21 (Table 9) (protein, listed as Homo sapiens)", "chain": "ETRWCIYYNANWELERTNQSGLERCEGEQDKRLHCYASWRNSSGTIELVKKGCWLDDFNCYDRQECVATEENPQVYFCCCEGNFCNERFTHLPEAGGPEVTYEPPPTAPTGGGGSVECPPCPAPPVAGPSVFLFPPKPKDTLMISRTPEVTCVVVDVSHEDPEVQFNWYVDGVEVHNAKTKPREEQFNSTFRVVSVLTVVHQDWLNGKEYKCKVSNKGLPAPIEKTISKTKGQPREPQVYTLPPSREEMTKNQVSLTCLVKGFYPSDIAVEWESNGQPENNYKTTPPMLDSDGSFFLYSKLTVDKSRWQQGNVFSCSVMHEALHNHYTQKSLSLSPGK"}}, "key": {"[1]": {"assay": "sActRIIB and doxorubicin in TOV-21G tumor-bearing nude mice: body weight and muscle mass", "type": "in vivo, mouse", "description": "The objective of the present study was to examine the effect of pharmacological administration of sActRIIB, doxorubicin (dox), and sActRIIB plus doxorubicin, respectively, on body weight, tumor growth and muscle mass in nude mice implanted with TOV-21G ovarian xenograft tumors. Eight-week-old female Athymic nude mice were SC injected with 0.2 mL of 5×10^6 TOV-21G cells into the left site of the lower flank of the mice. After 10 days of tumor implantation, the mice were divided into 4 groups by body weight and tumor size and then treated with vehicle, sActRIIB, doxorubicin or the combination of sActRIIB and doxorubicin. In addition, a group of non-tumor bearing mice was used as normal control and received PBS.\nMice were weighed weekly. Body weight data were recorded longitudinally. Tumor size was measured longitudinally by using an electronic caliper. The following formula was used to calculate actual tumor volume (Tomayko M and Reynolds C, 1989): (Volume of a rectangular solid tumor: Tumor volume (mm^3)=length (mm)×width (mm)×height (mm) of tumor). At the end of the study, mice in all groups were subjected to terminal necropsy and lean carcass weight (excluding skin, adipose tissue, internal organs, and head) was determined by using standard anatomical dissection procedures. […] All results were expressed as the mean±SEM (standard error of the mean). […]"}, "[2]": {"test_system": "G361 human melanoma xenografts", "assay": "G361 melanoma xenograft growth in nude mice", "type": "in vivo", "conditions": "sActRIIB 20 mg/kg SC 1x/week from day 14", "description": "G361 and 5637 xenografts. 5×10^6 G361 melanoma cells and 5637 bladder carcinoma cells, respectively, were inoculated SC into individual athymic nu/nu mice (Harlan Inc). Treatment was initiated 4 days after 5637 implantation and 14 days after G361 implantation, when the tumor volumes reached 130 mm^3−150 mm^3. 5637-implanted mice received PBS or activin-A antibody (10 mg/kg, SC, 2×/week). G361-implanted mice received PBS or sActRIIB (20 mg/kg, SC, 1×/week).\nFor all xenograft experiments, the tumor sizes were measured longitudinally by using an electronic caliper. Immediately prior to the 1st dose, the tumor-bearing mice were randomized to ensure even distribution in tumor sizes across different groups. Tumor volumes (mm^3) were calculated as tumor length (mm)×tumor width (mm)×tumor height (mm). Tumor weights were determined by necropsy."}, "TOV-21G xenografts": {"test_system": "TOV-21G xenografts", "assay": "TOV-21G xenograft in abdominal flank, hu-sActRIIB-Fc alone or with 5-FU: tumor growth", "type": "in vivo, human", "conditions": "52 days after tumor cell injection, versus vehicle-treated tumor-bearing group", "description": "In another experiment, athymic nude mice received TOV-21G xenografts in the abdominal flank. After 14 days, subcutaneous hu-sActRIIB-Fc was administered weekly alone or in combination with 5-FU."}, "caspase-3": {"test_system": "caspase-3", "assay": "Active caspase-3 immunostaining of inh-KO tumor sections", "type": "in vivo, mouse", "conditions": "ovarian and testicular tissue sections, regions of residual tumor cells", "description": "Zinc-formalin fixed paraffin tumor tissue sections of 4 μm in thickness were prepared. The sections were subjected to antigen retrieval by microwave 3 min in Unmask solution (Vector H-3300) followed by incubation in 10 μg/ml Proteinase-K for 20 min and in 1% H2O2 in dH2O for 10 min at room temperature. The sections were further incubated in 0.1% Tween-20 in PBS for 3 min to permeabilize the cell membrane and in goat serum for 30 min to block non-specific binding. The sections were then incubated at room temperature with specific primary antibody for 3 hours followed by incubation in biotinylated or fluorescently labeled secondary antibody. Substrate developed in Vector SG kit (SK-4700) or DAB and nuclear-counterstained in Vector Fast Red (H-3403) or in hematoxylin. The immunostained tissue sections were analyzed and photographed using a Nikon Eclipse 90i microscope equipped with DS-Ril camera. The primary antibodies used and their dilutions are as follows: VEGF (BD Pharmingen 550549) 1:20 or VEGF (Abcam ab46154) 1:100, active caspase-3 (Abcam ab32042) 1:50, Ang-1 (Abcam ab8451) 1:500, osteopontin (Abcam ab8448) 1:200, CD-31 (Abcam ab56299) 1:100, E-cadherin (Abcam ab76319) 1:80. For immunofluorescence staining, FITC-conjugated secondary antibody (Invitrogen) was added at 1:50 dilution in PBS and incubated for 30 min. Cell nuclei were counterstained with Vectashield PE (Vector)."}, "Smad2 signaling": {"test_system": "Smad2 signaling", "assay": "Western blot of phospho-Smad2 in inh-KO tumors", "type": "in vivo, mouse", "conditions": "inh-KO mice, increase vs WT controls", "description": "Protein extracts were prepared from cell cultures or tissues in T-PER tissue protein extraction reagent (Pierce) containing a mixture of protease inhibitors (Roche). A pool of 50 μg total protein for each group containing equal amounts of protein extract isolated from individual animals was separated by NuPAGE 4-12% Bis-Tris gel (Invitrogen) and transferred to PVDF. The membranes were probed with primary antibodies against total Smad2, p-Smad2 or E-cadherin (1:1000; Cell Signaling), endoglin, osteopontin (1:500; R & D Systems), IGFBP-1, IGFBP-2 (1:500; Abcam) followed by HRP-conjugated secondary antibody (1:2000; Cell Signaling). The membranes were stripped and re-probed with antibody against α-tubulin (1:1000; Cell Signaling)."}, "[3]": {"test_system": "TOV-21G, MRC-5, CCD-Lu and THP-1 cell cultures", "assay": "VEGF and Ang-1 ELISA of cell culture medium after recombinant activin-A", "type": "cell-based, human", "conditions": "sActRIIB added with activin-A", "description": "The serum VEGF levels in inh-KO mice were measured by using immunoassay kit (R & D Systems), and the levels of human VEGF and Ang-1 in cell line culture medium were quantified using ELISA kits purchased from Invitrogen (VEGF) and R & D Systems (Ang-1), by following the manufacturers' recommended protocols."}}, "data": [{"molecule": "B1", "values": [{"measurement": "body weight", "setting": "[1]; TOV-21G tumor-bearing nude mice, sActRIIB 10 mg/kg SC 1x/week, DOX 2 mg/kg IP 1x/week", "value": "effectively prevented the weight loss"}, {"measurement": "lean carcass weight and calf muscle mass", "setting": "[1]; TOV-21G-implanted nude mice, necropsy at end of 4-week experiment", "value": "prevented the loss in lean carcass weight and calf muscle mass"}, {"measurement": "growth rate and size of G361 xenografts", "setting": "[2]", "value": "significantly decreased the growth rates and sizes"}, {"measurement": "tumor growth reduction", "setting": "TOV-21G xenografts", "value": 43, "unit": "%"}, {"measurement": "active caspase-3 immunostaining", "setting": "caspase-3", "value": "strong immunostaining of active caspase-3"}, {"measurement": "phospho-Smad2 in the tumor tissues", "setting": "Smad2 signaling", "value": "eliminated this increase in phospho-Smad2"}, {"measurement": "activin-A-induced release of angiogenic factors (ELISA)", "setting": "[3]", "value": "blocked completely this activin-A-induced release of angiogenic factors"}]}]}
